# Laboratory results taken from patent US11732029B2, “Methods and compositions for the treatment of wounds” (The University of Chicago, priority 2017, dated 2023).
# How the values were obtained:
# [1] = system: human umbilical vein endothelial cells (HUVEC); experiment: Cell proliferation assay with vWF HBD, HUVEC; format: cell-based; details: vWF HBD coated plates, 72 hrs
# Procedure: (§1) Cell proliferation assays were performed as previously reported1. Briefly, human lung fibroblasts (Lonza) were cultured using FGM-2 medium (Lonza) (1000 cells/well) or human umbilical vein endothelial cells (HUVEC, Lonza) were cultured using EGM-2 medium (Lonza) (1000 cells/well) on 1 μg/mL vWF HBD pre-coated 96-well plates (Tissue culture treated, Falcon). Cell numbers were quantified after 72 hrs using a CyQUANT assay (Invitrogen).
# human lung fibroblasts = experiment: Cell proliferation assay with vWF HBD, fibroblasts; format: cell-based; details: vWF HBD coated plates, 72 hrs, in the presence of FGF-2
# Procedure: as §1
# PDGF-BB = molecular target: T1, PDGF-BB (Homo sapiens, UniProt P01127); experiment: Recombinant GF binding to the vWF recombinant protein and A1 HBD peptide (ELISA); details: plate coated with vWF protein, A1 domain or HBD peptide, 1 μg/mL GF
# T1 construct: All growth factors (GFs) and chemokines were purchased in their mature forms; purchased PeproTech; host or cells: Escherichia coli
# T1 sequence (P01127 82-190 limits assumed): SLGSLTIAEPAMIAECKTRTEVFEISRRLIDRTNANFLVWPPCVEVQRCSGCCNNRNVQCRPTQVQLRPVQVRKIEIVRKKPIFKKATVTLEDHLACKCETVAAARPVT
# Procedure: (§2) ELISA tests were performed as described above. In brief, ELISA plates were coated with 1 μg/mL of FL-vWF (WT or R1341Q), 1 μg/mL of vWF A1 recombinant protein (U-Protein Express) or 1 μg/mL of vWF A1 HBD peptide (sequence […], (SEQ ID NO:50) chemically synthesized by Genscript) at 37° C. overnight. After blocking with 2% BSA solution containing PBS-T, 1 μg/mL of the recombinant human proteins VEGF-A121, VEGF-A165, PlGF-1, PlGF-2, PDGF-BB, FGF-2, CXCL-12α and CXCL-12γ were added. 1 μg/mL of BSA served as non-binding protein control. Bound GF or chemokine was detected with biotinylated antibodies for human VEGF-A, PlGF, PDGF-BB, FGF-2, or CXCL-12 (R & D Systems). The antibodies were detected by streptavidin-HRP (R & D Systems). Color development and the absorbance measurement were done as described above.
# CXCL-12γ = molecular target: T2, CXCL-12γ (Homo sapiens, UniProt P48061); experiment: as above; details: plate coated with vWF protein, A1 domain or HBD peptide, 1 μg/mL GF
# T2 construct: All GFs and chemokines were purchased in their mature forms; purchased R & D Systems; host or cells: Escherichia coli
# T2 sequence (P48061 22-119 isoform P48061-3): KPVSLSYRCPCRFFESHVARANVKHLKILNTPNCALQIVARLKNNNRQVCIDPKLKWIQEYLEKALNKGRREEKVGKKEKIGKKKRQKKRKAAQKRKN
# Procedure: as §2
# VEGF-A121 = molecular target: T3, VEGF-A121 (Homo sapiens, UniProt P15692); experiment: vWF binding to recombinant VEGF-A isoforms (ELISA); design: All growth factors (GFs) and chemokines were purchased in their mature forms; purchased PeproTech; host or cells: Escherichia coli; details: plate coated with 50 nM vWF domains, 1 μg/mL VEGF-A, vs BSA
# T3 sequence (P15692 27-147 isoform P15692-9 limits assumed): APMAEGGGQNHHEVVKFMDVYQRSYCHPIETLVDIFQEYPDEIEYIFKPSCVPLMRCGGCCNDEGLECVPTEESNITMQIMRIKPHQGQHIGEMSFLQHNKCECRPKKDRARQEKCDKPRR
# Procedure: ELISA was performed as previously reported1. In brief, ELISA plates (med binding: Greiner Bio-One) were coated with 50 nM BSA (GE Healthcare), pro-peptide containing recombinant vWF (Sino Biological), plasma-derived vWF (EMD Millipore), recombinant human vWF A1 domain (U-Protein Express), recombinant human vWF A2 domain (R & D systems), recombinant human vWF A3 domain (U-Protein Express), vWF A1 HBD peptide or scrambled/mutated HBD peptide (all peptides were synthesized by Genscript). After blocking with 2% BSA solution containing PBS-T, 1 μg/mL of recombinant human VEGF-A121 (PeproTech), recombinant human VEGF-A145 (R & D Systems), or recombinant human VEGF-A165 (PeproTech) was added. Bound VEGF-A was detected with 1 μg/mL of mouse anti-human VEGF-A antibody (clone: 26503, R & D systems). After 60 min of incubation, horseradish peroxidase (HRP) conjugated goat anti-mouse antibody (1:2000 dilution, Dako) was added and incubated for another 60 min. Color development and the absorbance measurement were done as described above.
# VEGF-A165 = molecular target: T4, VEGF-A165 (Homo sapiens, UniProt P15692); experiment: Surface plasmon resonance, vWF against GF; format: binding; details: SPR; vWF immobilized; 1:1 Langmuir fit, single KD; read-out: dissociation constant (KD value) for VEGF-A165
# T4 construct: All growth factors (GFs) and chemokines were purchased in their mature forms; purchased PeproTech; host or cells: Escherichia coli
# T4 sequence (P15692 27-191 isoform P15692-4 limits assumed): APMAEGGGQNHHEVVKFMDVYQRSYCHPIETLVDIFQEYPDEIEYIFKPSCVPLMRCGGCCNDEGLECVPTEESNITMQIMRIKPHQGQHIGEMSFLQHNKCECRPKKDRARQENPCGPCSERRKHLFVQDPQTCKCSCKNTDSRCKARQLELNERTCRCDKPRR
# Procedure: SPR assays were performed as described previously2. In brief, measurements were made with a Biacore X100 SPR system or Biacore 3000 SPR system (GE Healthcare). Plasma-derived vWF was immobilized via amine coupling on a C1 chip (GE Healthcare) for 2000 resonance units (RU) according to the manufacturer's instructions. Recombinant human VEGF-A165, VEGF-A121, or PDGF-BB was flowed at increasing concentrations in the running buffer at 30 μL/min. The sensor chip was regenerated with glycine at pH 2 for every cycle. Specific binding of GFs to vWF was calculated automatically using the response to a non-functionalized channel as a reference. Binding curves were fitted using BIAevalution software (GE Healthcare). vWF-VEGF-A165 binding results were fitted with Langmuir binding kinetics (1:1 binding with drifting baseline Rmax local). vWF-PDGF-BB binding results were fitted with heterogeneous ligand-parallel reaction.
# VEGF-A = experiment: vWF binding to VEGF-A in human serum (sandwich ELISA, immunoprecipitation and Western blotting); details: two lots of pooled serum from healthy donors
# Procedure: One mL of human serum was immunoprecipitated with 10 μg of monoclonal rabbit anti-human vWF antibody (SinoBiological) or control rabbit IgG (EMD Millipore) and 50 μL of protein G-agarose (Thermo Fisher Scientific) overnight at 4° C. The resulting pellet was dissolved in Laemmli buffer and subjected to Western blot analysis. Western blot analysis was performed after SDS-PAGE (4-20% gradient gel, Bio-Rad) and transfer onto MS nitrocellulose membranes (Membrane Solutions). GFs were detected using 1 μg/mL biotinylated antibodies for human VEGF-A (R & D Systems), followed by incubation with HRP conjugated streptavidin (R & D Systems) at 1:200 dilutions. The proteins were detected and visualized with the ECL Plus Western Blotting Detection System (GE Healthcare).
# The study was approved by the ethics committees of the Hammersmith, Queen Charlotte's, and Royal Marsden hospitals; informed consent was obtained from all individuals in accordance with the Declaration of Helsinki. ELISA plates (med-binding) were coated with 10 μg/mL rabbit monoclonal anti-human vWF antibody (clone: 111, SinoBiological). […] The antibodies were detected by streptavidin-HRP (R & D Systems). Color development and the absorbance measurement were done as described above.
Substance,endothelial proliferation [1],fibroblast proliferation (human lung fibroblasts),binding to PDGF-BB (PDGF-BB),binding to CXCL-12γ (CXCL-12γ),binding to VEGF-A121 (VEGF-A121),Kd (VEGF-A165) [nM],vWF binding to VEGF-A in pooled human serum (VEGF-A)
YIGLKDRKRPSELRRIASQVKYAC [vWF HBD],did not affect endothelial proliferation,did not significantly affect fibroblast proliferation,showed binding,showed binding,,,
vWF: human plasma-derived von Willebrand factor (EMD Millipore),,,,,did not,27,binds to VEGF-A
